# Laboratory results published in PMC3171153.
# Key:
# Experiment in all cases: SPR; BIAcore T100; scFv-His10-CLAMP (150 nM) captured on ePDZ-b1 affinity clamp immobilised on a CM5 chip; purified SHC1 injected at increasing concentrations, 30 ul/min; PBS with 0.05% Tween 20; global fit, 1:1 interaction model
# [1] = target: anti-SHC1 scFv 72_2B01, His10-CLAMP-tagged
# [2] = target: six of the eight chain-shuffled derivatives (positive in immunoprecipitation), as measured by SPR
# [3] = target: anti-SHC1 scFv 72_1A10, His10-CLAMP-tagged
# anti-SHC1 scFv 72_1A10, His10-CLAMP-tagged, sequence (heavy, as listed by the source): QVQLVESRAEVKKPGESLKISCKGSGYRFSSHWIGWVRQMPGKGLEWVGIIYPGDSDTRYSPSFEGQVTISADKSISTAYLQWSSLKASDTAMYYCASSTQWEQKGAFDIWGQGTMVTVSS
binder,measurement,setting,value
SHC1 SH2 domain (purified SHC1 antigen) (domain or fragment) WFHGKLSRREAEALLQLNGDFLVRESTTTPGQYVLTGLQSGQPKHLLLVDPEGVVRTKDHRFESVSHLISYHMDNHLPIISAGSELCLQQPV,fold improvement in affinity over 58 E05,[1],59 fold
same,fold reduction in off-rate against 58 E05,[1],3.2 fold
same,Kd,[2],< 60 nM
same,koff,[2],< 0.1 s⁻¹
same,Kd,[3],25 nM
